Test results as given in publication PMC7284817.

Key:
[1] = molecular target: S. mansoni neuropeptide NPP2a, membrane-anchored ligand fusion (linker-WBP1 TMP-Cub-GAL4) (S. mansoni); assay: two-hybrid; MALAR-Y2H; β-galactosidase (ONPG) assay of diploid cells, lysate incubated 30 min at 30°C, OD405, Miller Units, mean of two clones
[2] = molecular target: CXC-motif chemokine ligand 12 (CXCL12), membrane-anchored ligand fusion (Cub-GAL4); assay: as above

Chain of mouse receptor CXCR4, NubG fusion (positive control) (P70658 whole entry, the tested form may be a part): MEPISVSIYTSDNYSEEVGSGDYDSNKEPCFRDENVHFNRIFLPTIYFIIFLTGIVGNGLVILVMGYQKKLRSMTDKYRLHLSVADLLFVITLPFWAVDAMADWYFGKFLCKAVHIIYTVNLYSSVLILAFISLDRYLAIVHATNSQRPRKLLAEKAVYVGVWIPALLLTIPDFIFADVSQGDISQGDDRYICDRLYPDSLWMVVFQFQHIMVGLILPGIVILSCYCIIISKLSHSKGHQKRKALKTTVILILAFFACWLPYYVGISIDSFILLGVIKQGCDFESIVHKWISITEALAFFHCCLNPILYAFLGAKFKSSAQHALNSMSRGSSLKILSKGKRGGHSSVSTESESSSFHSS

Miller units (β-Gal activity) [2]	Substance	Miller units (β-Gal activity) [1]
	Schistosoma mansoni G protein-coupled receptor GPCR14 (Smp_203500), fused to NubG	2.68 Miller units
3.07 Miller units	mouse receptor CXCR4, NubG fusion (positive control)	
